Two molecules from paper PMC8651051 (Science Translational Medicine, 2021) can be followed below.

Assay [1] deals with SARS-CoV-2 RBD, truncated version (residues 333 to 529) used for crystallization (SARS-CoV-2, UniProt P0DTC2). The experiment in a line: crystal structure. Conditions: both partners purified.
In assay [2] the target is SARS-CoV-2 RBD, truncated version (residues 333 to 529) (SARS-CoV-2, UniProt P0DTC2). The experiment in a line: crystal structure. Conditions: both partners purified.

B1: COVA1-16 Fab (Fab, V domains shown)
VH: QVQLVQSGAEVKKPGASVKVSCKASGYTFTSYYMHWVRQAPGQGLEWMGIINSSGGSTSYAQKFQGRVTMTRDTSTSTVYMELSSLRSEDTAVYYCARPPRNYYDRSGYYQRAEYFQHWGQGTLVTVSS
VL: DIQLTQSPSSLSASVGDRVTITCQASQDISNYLNWYQQRPGKAPKLLIYDASNLETGVPSRFSGSGSGTDFTFTISSLQPEDIATYYCQQYDNPPLTFGGGTKLEIK
On to B1, for which the binding result in assay [1] was “binds”.

B2: COVA1-16 Fab (Fab, V domains shown)
VH: QVQLVQSGAEVKKPGASVKVSCKASGYTFTSYYMHWVRQAPGQGLEWMGIINSSGGSTSYAQKFQGRVTMTRDTSTSTVYMELSSLRSEDTAVYYCARPPRNYYDRSGYYQRAEYFQHWGQGTLVTVSS
VL: DIQLTQSPSSLSASVGDRVTITCQASQDISNYLNWYQQRPGKAPKLLIYDASNLETGVPSRFSGSGSGTDFTFTISSLQPEDIATYYCQQYDNPPLTFGGGTKLEIK
Take B2: in assay [2], the binding result is reported as “binds”.
